Laboratory results from publication PMC7351759, “Nuclear moonlighting of cytosolic glyceraldehyde-3-phosphate dehydrogenase regulates Arabidopsis response to heat stress” (Nature Communications, 2020).

B1: NF-YC10-6xHis (natural protein, Arabidopsis, UniProt Q58CM8 1-195, looked up)
chain: MRRPKSSHVRMEPVAPRSHNTMPMLDQFRSNHPETSKIEGVSSLDTALKVFWNNQREQLGNFAGQTHLPLSRVRKILKSDPEVKKISCDVPALFSKACEYFILEVTLRAWMHTQSCTRETIRRCDIFQAVKNSGTYDFLIDRVPFGPHCVTHQGVQPPAEMILPDMNVPIDMDQIEEENMMEERSVGFDLNCDLQ
notes: Nuclear factor Y subunit C10, cloned from Arabidopsis; also called recombinant NF-YC10
B2: NF-YC10-6xHis-STREP (natural protein, Arabidopsis, UniProt Q58CM8 1-195, looked up)
chain: MRRPKSSHVRMEPVAPRSHNTMPMLDQFRSNHPETSKIEGVSSLDTALKVFWNNQREQLGNFAGQTHLPLSRVRKILKSDPEVKKISCDVPALFSKACEYFILEVTLRAWMHTQSCTRETIRRCDIFQAVKNSGTYDFLIDRVPFGPHCVTHQGVQPPAEMILPDMNVPIDMDQIEEENMMEERSVGFDLNCDLQ
notes: Nuclear factor Y subunit C10 of Arabidopsis

Columns and labels:
Settings in all cases: both partners purified
GAPC2-Flag (cytosolic …) = molecular target: T1, GAPC2-Flag (cytosolic glyceraldehyde-3-phosphate dehydrogenase 2) (Arabidopsis, UniProt Q9FX54 1-338); experiment: co-IP; GAPC1-Flag or GAPC2-Flag purified from Arabidopsis mixed with purified NF-YC10-6xHis; IP with anti-Flag antibody and Protein A-agarose, overnight at 4 °C, buffer A (20 mM NaH2PO4 pH 8.0, 150 mM NaCl); blot with anti-6xHis antibody
T1 construct: Cytosolic glyceraldehyde-3-phosphate dehydrogenase GAPC2 of Arabidopsis; CaMV-35S promoter; source: Arabidopsis overexpressing GAPC2-Flag, purified with an anti-Flag antibody and Protein A-agarose

GAPC1-Flag (cytosolic …) = molecular target: T2, GAPC1-Flag (cytosolic glyceraldehyde-3-phosphate dehydrogenase 1) (Arabidopsis, UniProt P25858 1-338); experiment: as above
T2 construct: Cytosolic glyceraldehyde-3-phosphate dehydrogenase GAPC1 of Arabidopsis; CaMV-35S promoter; source: Arabidopsis overexpressing GAPC1-Flag, purified with an anti-Flag antibody and Protein A-agarose

GAPC2-6xHis = molecular target: T3, GAPC2-6xHis (Arabidopsis, UniProt Q9FX54 1-338); experiment: co-IP; purified GAPC2-6xHis or GAPC2mut’-6xHis mixed with NF-YC10-6xHis-STREP; IP with anti-STREP antibody, blot with anti-6xHis antibody
T3 construct: Cytosolic glyceraldehyde-3-phosphate dehydrogenase GAPC2 of Arabidopsis; source: purified
T3 sequence (Q9FX54 whole entry): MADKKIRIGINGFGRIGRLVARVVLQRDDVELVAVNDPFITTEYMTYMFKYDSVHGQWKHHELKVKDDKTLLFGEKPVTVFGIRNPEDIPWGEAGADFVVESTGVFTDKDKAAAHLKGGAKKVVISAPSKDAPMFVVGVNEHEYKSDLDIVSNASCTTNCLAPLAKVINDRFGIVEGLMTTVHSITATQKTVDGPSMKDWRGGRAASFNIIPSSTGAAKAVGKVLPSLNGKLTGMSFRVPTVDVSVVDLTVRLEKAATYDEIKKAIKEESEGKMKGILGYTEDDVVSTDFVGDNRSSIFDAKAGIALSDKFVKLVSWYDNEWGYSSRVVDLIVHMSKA

T2 sequence (P25858 whole entry): as the sequence (Q9FX54 whole entry) above, with H61N, V65I, D68E, G92A, F98Y, S227A, M274L counted along it
T1 sequence (Q9FX54 whole entry): as the sequence (Q9FX54 whole entry) above

| Binder | binding result (GAPC2-Flag (cytosolic …)) | binding result (GAPC1-Flag (cytosolic …)) | binding result (GAPC2-6xHis) |
| --- | --- | --- | --- |
| B1 | binds | binds | – |
| B2 | – | – | binds |
